This note sets out measurements from article PMC10786891, “Massively parallel profiling of RNA-targeting CRISPR-Cas13d”.

T1: EsCas13d, nuclease-dead (Eubacterium siraeum, UniProt B0MS50, R295A;H300A;R849A;H854A)
T1 sequence: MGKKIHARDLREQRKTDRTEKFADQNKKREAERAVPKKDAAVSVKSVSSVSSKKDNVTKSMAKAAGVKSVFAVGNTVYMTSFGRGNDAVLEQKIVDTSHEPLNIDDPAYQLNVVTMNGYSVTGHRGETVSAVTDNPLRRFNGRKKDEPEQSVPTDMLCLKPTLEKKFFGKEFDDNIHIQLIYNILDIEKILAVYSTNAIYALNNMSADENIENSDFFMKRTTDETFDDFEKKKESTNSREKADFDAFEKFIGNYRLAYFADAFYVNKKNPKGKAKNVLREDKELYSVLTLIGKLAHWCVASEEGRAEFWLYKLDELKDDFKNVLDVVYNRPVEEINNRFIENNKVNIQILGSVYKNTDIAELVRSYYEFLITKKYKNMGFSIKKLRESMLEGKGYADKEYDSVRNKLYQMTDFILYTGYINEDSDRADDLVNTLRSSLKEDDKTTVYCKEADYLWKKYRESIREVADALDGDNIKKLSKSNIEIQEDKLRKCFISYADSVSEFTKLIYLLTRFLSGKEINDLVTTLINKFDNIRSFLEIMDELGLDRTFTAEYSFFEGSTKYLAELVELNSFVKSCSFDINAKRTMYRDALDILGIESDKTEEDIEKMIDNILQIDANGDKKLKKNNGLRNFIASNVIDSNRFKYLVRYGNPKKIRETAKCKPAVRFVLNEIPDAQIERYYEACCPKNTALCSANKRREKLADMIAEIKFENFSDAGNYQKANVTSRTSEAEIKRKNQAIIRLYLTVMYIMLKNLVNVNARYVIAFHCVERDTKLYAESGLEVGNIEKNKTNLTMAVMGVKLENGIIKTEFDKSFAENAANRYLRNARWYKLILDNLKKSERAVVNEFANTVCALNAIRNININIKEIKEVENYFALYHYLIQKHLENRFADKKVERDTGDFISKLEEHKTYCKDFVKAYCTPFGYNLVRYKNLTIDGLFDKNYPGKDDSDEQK

B1: target 2 MT 5'PFS UGG 3'PFS AGC (mixed)
RNA 1: CACCCGUGCAAAAUUGCAGGGGUCUAAAACCUUCUCCAAAUUGUUUCAUCCU
RNA 2: GGGAAUGGAUCCACAUCUACGAAUUCUGGAGGAUGAAACAAUUUGGAGAAGAGCAGAUCGGAAGAGCACACGU
B2: target 2 MT 5'PFS GCA 3'PFS UCA (mixed)
RNA 1: B1 RNA 1
RNA 2: B1 RNA 2 with U27G, G28C, G29A, A52U, G53C, C54A
B3: target 2 MT 5'PFS UCA 3'PFS CAA (mixed)
RNA 1: B1 RNA 1
RNA 2: B1 RNA 2 with G28C, G29A, A52C, G53A, C54A
B4: target 2 MT 5'PFS UAU 3'PFS GAU (mixed)
RNA 1: B1 RNA 1
RNA 2: B1 RNA 2 with G28A, G29U, A52G, G53A, C54U
B5: target 2 MT 5'PFS GAA 3'PFS CUU (mixed)
RNA 1: B1 RNA 1
RNA 2: B1 RNA 2 with U27G, G28A, G29A, A52C, G53U, C54U
B6: target 2 MT 5'PFS UCA 3'PFS ACC (mixed)
RNA 1: B1 RNA 1
RNA 2: B1 RNA 2 with G28C, G29A, G53C
B7: target 2 MT 5'PFS UCA 3'PFS ACU (mixed)
RNA 1: B1 RNA 1
RNA 2: B1 RNA 2 with G28C, G29A, G53C, C54U
B8: target 2 MT 5'PFS CAC 3'PFS UUU (mixed)
RNA 1: B1 RNA 1
RNA 2: B1 RNA 2 with U27C, G28A, G29C, A52U, G53U, C54U
B9: target 2 MT 5'PFS UCA 3'PFS ACG (mixed)
RNA 1: B1 RNA 1
RNA 2: B1 RNA 2 with G28C, G29A, G53C, C54G
B10: target 2 MT 5'PFS GAA 3'PFS CUC (mixed)
RNA 1: B1 RNA 1
RNA 2: B1 RNA 2 with U27G, G28A, G29A, A52C, G53U
B11: target 2 MT 5'PFS CUG 3'PFS CUU (mixed)
RNA 1: B1 RNA 1
RNA 2: B1 RNA 2 with U27C, G28U, A52C, G53U, C54U
B12: target 2 MT 5'PFS ACC 3'PFS CAU (mixed)
RNA 1: B1 RNA 1
RNA 2: B1 RNA 2 with U27A, G28C, G29C, A52C, G53A, C54U
B13: target 2 MT 5'PFS AUU 3'PFS UAC (mixed)
RNA 1: B1 RNA 1
RNA 2: B1 RNA 2 with U27A, G28U, G29U, A52U, G53A
B14: target 2 MT 5'PFS UGU 3'PFS CUU (mixed)
RNA 1: B1 RNA 1
RNA 2: B1 RNA 2 with G29U, A52C, G53U, C54U
B15: target 2 MT 5'PFS UCU 3'PFS UUG (mixed)
RNA 1: B1 RNA 1
RNA 2: B1 RNA 2 with G28C, G29U, A52U, G53U, C54G
B16: target 2 MT 5'PFS UCA 3'PFS CAG (mixed)
RNA 1: B1 RNA 1
RNA 2: B1 RNA 2 with G28C, G29A, A52C, G53A, C54G
B17: target 2 MT 5'PFS CUG 3'PFS CUG (mixed)
RNA 1: B1 RNA 1
RNA 2: B1 RNA 2 with U27C, G28U, A52C, G53U, C54G
B18: target 2 MT 5'PFS GCG 3'PFS AUU (mixed)
RNA 1: B1 RNA 1
RNA 2: B1 RNA 2 with U27G, G28C, G53U, C54U
B19: target 2 MT 5'PFS ACA 3'PFS UCA (mixed)
RNA 1: B1 RNA 1
RNA 2: B1 RNA 2 with U27A, G28C, G29A, A52U, G53C, C54A
B20: target 2 MT 5'PFS UGU 3'PFS CUC (mixed)
RNA 1: B1 RNA 1
RNA 2: B1 RNA 2 with G29U, A52C, G53U
B21: target 2 MT 5'PFS GAA 3'PFS CUA (mixed)
RNA 1: B1 RNA 1
RNA 2: B1 RNA 2 with U27G, G28A, G29A, A52C, G53U, C54A
B22: target 2 MT 5'PFS CUG 3'PFS CUA (mixed)
RNA 1: B1 RNA 1
RNA 2: B1 RNA 2 with U27C, G28U, A52C, G53U, C54A
B23: target 2 MT 5'PFS CGG 3'PFS AAA (mixed)
RNA 1: B1 RNA 1
RNA 2: B1 RNA 2 with U27C, G53A, C54A
B24: target 2 MT 5'PFS CUG 3'PFS CUC (mixed)
RNA 1: B1 RNA 1
RNA 2: B1 RNA 2 with U27C, G28U, A52C, G53U
B25: target 2 MT 5'PFS GAA 3'PFS CUG (mixed)
RNA 1: B1 RNA 1
RNA 2: B1 RNA 2 with U27G, G28A, G29A, A52C, G53U, C54G
B26: target 2 MT 5'PFS UAG 3'PFS CAA (mixed)
RNA 1: B1 RNA 1
RNA 2: B1 RNA 2 with G28A, A52C, G53A, C54A
B27: target 2 MT 5'PFS UCA 3'PFS CAU (mixed)
RNA 1: B1 RNA 1
RNA 2: B1 RNA 2 with G28C, G29A, A52C, G53A, C54U
B28: target 2 MT 5'PFS CGG 3'PFS AAC (mixed)
RNA 1: B1 RNA 1
RNA 2: B1 RNA 2 with U27C, G53A
B29: target 2 MT 5'PFS CGG 3'PFS AAG (mixed)
RNA 1: B1 RNA 1
RNA 2: B1 RNA 2 with U27C, G53A, C54G
B30: target 2 MT 5'PFS UCA 3'PFS ACA (mixed)
RNA 1: B1 RNA 1
RNA 2: B1 RNA 2 with G28C, G29A, G53C, C54A
B31: target 2 MT 5'PFS AAC 3'PFS UUU (mixed)
RNA 1: B1 RNA 1
RNA 2: B1 RNA 2 with U27A, G28A, G29C, A52U, G53U, C54U
B32: target 2 MT 5'PFS UAG 3'PFS CAG (mixed)
RNA 1: B1 RNA 1
RNA 2: B1 RNA 2 with G28A, A52C, G53A, C54G
B33: target 2 MT 5'PFS UGU 3'PFS CUA (mixed)
RNA 1: B1 RNA 1
RNA 2: B1 RNA 2 with G29U, A52C, G53U, C54A
B34: target 1 insG 3' of 14,insC 3' of 3 (mixed)
RNA 1: CACCCGUGCAAAAAUGCAGGGGUCUAAAACUGAGCGGAUAACCUCUCUAUGG
RNA 2: GGGAAUGGAUCCACAUCUACGAAUUCGUACCAUAGAGAGGGUUAUCCGCUCCACCGAGAUCGGAAGAGCACACGU
B35: target 1 complement block 6-8 (mixed)
RNA 1: B34 RNA 1
RNA 2: GGGAAUGGAUCCACAUCUACGAAUUCGUACCAUAGAGAGGUUAAGGGCUCACCGAGAUCGGAAGAGCACACGU
B36: target 1 U10C,A14G (mixed)
RNA 1: B34 RNA 1
RNA 2: B35 RNA 2 with A38G, U42C, A44U, G45C, G46C

Positions count from the first letter of the chain named. Names and notes keep the numbering of the source.

This data set addresses T1, EsCas13d, nuclease-dead. Briefly: crRNA (strand 1, pre-loaded); Mg2+; 40 mM Tris-HCl pH 7.5, 150 mM NaCl, 6 mM MgCl2, 1 mM DTT, 0.1% Tween-20, 0.2 mg/ml BSA; 25 C; 10 min per concentration, then washed. To be noted: tags: His6-TwinStrep-SUMO cleaved; N-terminal SNAP kept (SNAP-Surface 488); label: 3' end held by stalled T7 RNA polymerase.
The term Kd denotes the equilibrium constant for the complex coming apart. Lower therefore signals a tighter complex. Take B1: the affinity, expressed as Kd, was 6 ± 0.9 nM.
Then B2, with 10.9 ± 2.1 nM.
Then B3, with 5.3 ± 1.2 nM.
Then B4, with ~44 nM; and B5, with 15.1 ± 2.7 nM; and B6, with 13.6 ± 3.1 nM.
B7: the Kd was 7 ± 1.4 nM.
The value for B8 was 5.2 ± 0.8 nM; that for B9 was 3.6 ± 0.6 nM.
Take B10: the affinity, expressed as Kd, was 16 ± 4 nM.
Then B11, with 3.55 ± 0.34 nM; and B12, with 10 ± 4 nM; and B13, with 11.9 ± 2.2 nM.
Then B14, with 14.6 ± 2 nM; and B15, with 16.9 ± 2.8 nM.
Then B16, with 3.1 ± 0.4 nM; and B17, with 2.67 ± 0.23 nM; and B18, with 12.6 ± 2 nM.
As to B19, the Kd was determined as 8.7 ± 3.2 nM.
Regarding B20, the dissociation constant Kd was ~50 nM.
The value for B21 was 6.9 ± 1.1 nM; that for B22 was 3.2 ± 0.4 nM.
The value for B23 was 5.7 ± 0.9 nM; that for B24 was 5.7 ± 0.6 nM.
Then B25, with 11.2 ± 1.4 nM.
As to B26, binding was characterised by a dissociation constant (Kd) of 1.92 ± 0.26 nM.
With B27, binding was characterised by a dissociation constant (Kd) of 4.8 ± 1.1 nM.
For the molecule B28, the affinity, expressed as Kd, was 4.2 ± 0.4 nM.
Then B29, with 4.4 ± 0.5 nM.
The value for B30 was 3.6 ± 0.5 nM.
As for B31, binding was characterised by a dissociation constant (Kd) of 7.1 ± 1.3 nM.
The value for B32 was 2.68 ± 0.21 nM; that for B33 was 12.9 ± 2 nM.
In turn, B34 came in with a Kd of 10.5 ± 0.9 nM.
Then B35, with 8.69 ± 0.24 nM; and B36, with 34.1 ± 2.8 nM.
